In patent CN112794900A (2ND XIANGYA HOSPITAL CENTRAL SOUTH UNIV, dated 2021):

How the values were obtained:
[1] = target: T1, cBIN1 Isoform II3 (cBIN1 exon 1-12&18-20) (UniProt O00499-7 1-439); assay: ELISA, antigen coated at 0.1μg/well
T1 construct: domain: cBIN1 exon 1-12&18-20; Tags are unknown; also called 缺失exon13的cBIN1 Isoform II3蛋白
T1 sequence (looked up): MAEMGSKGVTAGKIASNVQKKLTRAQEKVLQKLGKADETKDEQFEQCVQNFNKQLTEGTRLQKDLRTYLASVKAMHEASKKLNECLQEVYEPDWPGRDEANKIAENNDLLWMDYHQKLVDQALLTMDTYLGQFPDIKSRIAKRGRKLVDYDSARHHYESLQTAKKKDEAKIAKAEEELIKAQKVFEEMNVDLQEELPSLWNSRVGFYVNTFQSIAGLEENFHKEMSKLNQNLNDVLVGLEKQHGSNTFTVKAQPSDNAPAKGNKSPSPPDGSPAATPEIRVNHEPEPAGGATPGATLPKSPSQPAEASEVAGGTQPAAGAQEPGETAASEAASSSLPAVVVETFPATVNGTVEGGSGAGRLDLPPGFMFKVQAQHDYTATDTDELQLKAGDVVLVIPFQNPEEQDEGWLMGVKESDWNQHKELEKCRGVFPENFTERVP

[2] = target: T2, cBIN1 Isoform II2 (cBIN1 exon1-13&18-20) (UniProt O00499-6 1-482); assay: ELISA, antigen coated at 0.1μg/well, OD450
T2 construct: domain: cBIN1 exon1-13&18-20; tags are unknown; also called 含有exon13的cBIN1 Isoform II2蛋白
T2 sequence (looked up): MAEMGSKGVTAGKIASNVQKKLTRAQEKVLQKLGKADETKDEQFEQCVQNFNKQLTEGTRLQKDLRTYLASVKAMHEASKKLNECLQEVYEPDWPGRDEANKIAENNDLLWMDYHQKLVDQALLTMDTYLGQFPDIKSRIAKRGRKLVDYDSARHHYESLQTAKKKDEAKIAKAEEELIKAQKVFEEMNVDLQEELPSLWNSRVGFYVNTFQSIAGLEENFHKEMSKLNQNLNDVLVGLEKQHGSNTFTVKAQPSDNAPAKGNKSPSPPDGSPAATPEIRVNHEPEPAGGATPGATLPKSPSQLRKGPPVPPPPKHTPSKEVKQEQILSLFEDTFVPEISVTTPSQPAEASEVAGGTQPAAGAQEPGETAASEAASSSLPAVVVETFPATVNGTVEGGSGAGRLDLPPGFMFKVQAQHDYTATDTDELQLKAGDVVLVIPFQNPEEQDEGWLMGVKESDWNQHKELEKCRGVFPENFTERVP

B1: 鼠源抗体 8G1-D7-F5 (抗人源cBIN1 exon13抗体) (antibody, V domains shown)
VH: EVQLQQSGAELVRPGASVKLSCTTSGFNIKDSYMHWVKQRPEQGLEWIGRIDPEDDDAVYAPKFQDRATMTADTSSNTAYLHLSSLTSDDTAVYYCTTSTLVATPWFFDVWGTGTTVTVSS
VL: DIQMTQTTSSLSASLGDRVTISCSASQDINNYLNWYQQKPDGTVKLLIYYTSTLHSGVPSRFSGSGSGTDYSLTITNLEPEDFATYYCQQYTHNLPWTFGGGTKLEIK
notes: Mouse hybridoma antibody; The printed light chain FR3 may lack a leading G; also called cBIN1抗体
For B1, the binding result [1] was “no binding (tested: 10μg/ml起始浓度, 三倍稀释, 11个检测点)” and the EC50 [2] was 0.058 µg/mL.
